Measurements: the RNAGym collection of RNA variant scans (doi:10.1073/pnas.2313332121)

B1: TPR t1 (parent)
chain: GACCAAUCUGCCCUCAGAGCUCGAGAACAUCUUCGGAUGCAGAGGAGGCAGGCUUCGGUGGCGCGAUAGCGCCAACGUCCUCAACCUCCAAUGCAUCCCACCACAUGAUGAUGCCUGAAGAGCCUUGGUUUUUUG

Variants of: B1
Assay: polymerase ribozyme fitness, log enrichment relative to wild type (log ratio); higher = more active; in vitro selection for triplet polymerase activity
Summary of the method: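 Both subunits of a heterodimeric triplet polymerase ribozyme were given their own mutant library, built by PCR and transcribed. Each library was annealed with a biotinylated primer, the partner subunit and triplets, incubated frozen at −7 °C, and its extended constructs gel-excised, captured on streptavidin beads and amplified by RT-PCR, all in one round done in triplicate. Fitness is the logarithm of genotype enrichment relative to wild-type enrichment, with replicates averaged by inverse-variance weighting. That logarithm is base 2, and Illumina-sequenced genotypes needed ≥10 input reads and ≥1 read per output.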

Row | Variant | polymerase ribozyme fitness (log ratio)
1 | G48U C85G C89U | -0.48
2 | C49A G61A G110U U125C | -2.14
3 | C49G G63U U96G | -2.68
4 | C49A C72A G110C U112A | -6.75
5 | G48U G71U U81A C124U | -0.483
6 | C49G G120C | 1.11
7 | C49G G120A | 0.175
8 | C49A G63U C123A | -0.941
9 | G48U U87G A90U | -1.49
10 | G48U G110A | -1.84
11 | C49A C70A C73U U87A | -3.37
12 | G48U A91U C104A | -5.89
13 | C49G C56A G71A G93C | -6.41
14 | C49A G51C G57C C72U C115G | -3.69
15 | C49A A90U A91U A111C A119G U130A U131C | -2.85
16 | C49A C70A | -1.29
17 | C49A C70G | -4.31
18 | G48C G57U G69U U92C | -1.31
19 | G48C G57U U96C | -0.888
20 | C49G G63A U87A | -2.53
21 | C49G C53A C94U U116G | -2.47

Row | Variant | polymerase ribozyme fitness (log ratio)
22 | C49G G61A A95C | -1.32
23 | C49A C73G U106G U130C | -2.23
24 | C49G G57C G58C G63U | -3.06
25 | C49A C86A | -2.07
26 | G48U U55G | -0.43
27 | C49A G71C C98U | -2.91
28 | G48C G93C | -0.578
29 | G48C G93A | -1.82
30 | G48U G69A C85G | -3.42
31 | C49G C85U G117C | -3.67
32 | C49G C73G | -1.7
33 | C49A C72A A83C C101A A121U | 0.741
34 | G48U A66G C86A U125G G127C | -3.31
35 | G48U U109A | -5.53
36 | G48U U109G | -4.7
37 | C49G A103U C124U | -4.18
38 | C49G C73A C85U C89A | -2.43
39 | C49A U54A G77U | -0.966
40 | C49A G71A C101A C114A | -4.05
41 | G48U C62G C104A U106C | -5.05
42 | G48U C62A A91U C123U U125A | -4.09

Row | Variant | polymerase ribozyme fitness (log ratio)
43 | C49A A91G G93U G117U G135A | -6.28
44 | G48U C62U G71C U96A | -2.08
45 | C49G G52A C53U A84G C85U C94U | -1.34
46 | C49A G60A | -0.214
47 | C49A G60U | 0.254
48 | G48C G57A G63A G93U G127A | -4.97
49 | G48U G71U U96C | -1.48
50 | C49G G77U A95G | -1.23
51 | C49G G57U A119G U133G | -0.101
52 | C49G G52U C56G C72G | -7.2
53 | G48U U54C C73G C82G G113A G122A U126G | -6.92
54 | G48U G60U A66C U78G A90G C123A U132A | -1.91
55 | G48C U87G A95C | -3
56 | G48C G63A C101U | -0.648
57 | G48U A50U C89G U106A U116C C124U | -3.34
58 | G48U U116C | -1.64
59 | G48U C97G | -4.5
60 | C49G A68G G117U | -5.87
61 | C49A U54A G60U U81A G128U | -2
62 | C49A C79A | -3.94
63 | G48U A121C | -0.0339

Row | Variant | polymerase ribozyme fitness (log ratio)
64 | G48U C98U | -1.96
65 | C49G G60U C73U G128U | -3.07
66 | G48C U133G | -1.8
67 | G48U C62A U78G | -1.98
68 | C49A C73A C101G C115A G120A | -2.56
69 | G48C G61A A83U U87A G128U | -3.32
70 | G48U G63A G110U | -4.15
71 | C49A G60A A121C G122A | 0.833
72 | G48U G63A | -1.96
73 | G48U C62A G127C | -3.44
74 | C49G C97G | -4.99
75 | G48C G60U U106A G107C | -6.48
76 | C49G A119U | -0.491
77 | G48C G63A G113A U126C | -3.69
78 | C49A U78A U87G U130A | -1.01
79 | G48U C101A U116G U130A | -4.7
80 | G48U C49U C73G G120U | 0.0945
81 | C49G A68G G77U | -4.38
82 | G48U U106C G117C | -5.18
83 | G48U C53G C86U C98A C123G C124A | -5.23
